Measurements: paper PMC314469, “Protein Interaction Networks by Proteome Peptide Scanning” (PLoS Biology, 2004)

T1: Yhr016c SH3 (YSC84_YEAST), P32793
T1 chain: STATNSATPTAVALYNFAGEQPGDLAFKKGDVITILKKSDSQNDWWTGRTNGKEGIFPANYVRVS

T2: Myo5 SH3 (MYO5_YEAST), Q04439
T2 chain: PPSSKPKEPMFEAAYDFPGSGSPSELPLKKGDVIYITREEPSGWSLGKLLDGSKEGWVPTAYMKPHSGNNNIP

T3: Boi2 SH3 (BOI2_YEAST), P39969
T3 chain: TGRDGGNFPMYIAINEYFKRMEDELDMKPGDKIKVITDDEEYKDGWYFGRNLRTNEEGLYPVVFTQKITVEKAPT

T4: Rvs167 SH3 (RV167_YEAST), P39743
T4 chain: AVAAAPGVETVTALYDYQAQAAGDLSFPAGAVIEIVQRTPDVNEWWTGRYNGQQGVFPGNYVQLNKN

T5: Yfr024 SH3 (LSB3_YEAST), P43603
T5 chain: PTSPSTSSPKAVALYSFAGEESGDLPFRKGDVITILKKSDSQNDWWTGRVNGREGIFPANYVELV

T6: Boi1 SH3 (BOI1_YEAST), P38041
T6 chain: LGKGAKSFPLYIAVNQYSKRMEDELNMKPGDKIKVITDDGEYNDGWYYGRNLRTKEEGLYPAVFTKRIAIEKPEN

B1: YMR067C 383-396 (peptide)
chain: NTINKSNPQGPSDN
B2: YPR029C 360-373 (peptide)
chain: NTLLKVVPQEPTAV
B3: YBR056W 255-268 (peptide)
chain: NTVEKLQPGLPVII
B4: YGR123C 104-117 (peptide)
chain: NVLLKAKPNDPAAT
B5: YPL055C 201-214 (peptide)
chain: NYHHRETPPPPPSN
B6: YPL137C 1165-1178 (peptide)
chain: PANPKILPKIPSGA
B7: YNL106C 1153-1166 (peptide)
chain: PSKKKSKPKVPAKN

Assays:
Assay in all cases: SPOT array
[1] = target: T1, Yhr016c SH3 (YSC84_YEAST), P32793
[2] = target: T2, Myo5 SH3 (MYO5_YEAST), Q04439
[3] = target: Sho1 SH3 (SHO1_YEAST), P40073
Sequence of Sho1 SH3 (SHO1_YEAST), P40073 (P40073 295-366): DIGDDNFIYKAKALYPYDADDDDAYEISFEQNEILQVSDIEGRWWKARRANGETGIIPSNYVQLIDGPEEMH

[4] = target: T3, Boi2 SH3 (BOI2_YEAST), P39969
[5] = target: T4, Rvs167 SH3 (RV167_YEAST), P39743
[6] = target: T5, Yfr024 SH3 (LSB3_YEAST), P43603
[7] = target: T6, Boi1 SH3 (BOI1_YEAST), P38041

Binder	normalised SPOT signal, Boehringer light units (BLU); mean over the file's lines of this peptide [1]	normalised SPOT signal, Boehringer light units (BLU); mean over the file's lines of this peptide [2]	normalised SPOT signal, Boehringer light units (BLU); mean over the file's lines of this peptide [3]	normalised SPOT signal, Boehringer light units (BLU); mean over the file's lines of this peptide [4]	normalised SPOT signal, Boehringer light units (BLU); mean over the file's lines of this peptide [5]	normalised SPOT signal, Boehringer light units (BLU); mean over the file's lines of this peptide [6]	normalised SPOT signal, Boehringer light units (BLU); mean over the file's lines of this peptide [7]
B1	46.5	76.2	57.6	30.9	93.5	163	310
B2	311	154	75.6	62.6	62.5	116	1110
B3	12	280	2.8	33.2	16.6	33.6	41
B4	310	156	126	29.5	121	63.4	1780
B5	178	318	70	59.3	129	323	58.5
B6	5.1	164	16400	0.9	34.3	93.9	158
B7	62	580	483	32.8	36.2	565	383
